Laboratory results as given in US20020147326A1, “Hexameric fusion proteins and uses therefor” (SmithKline Beecham Corporation, priority 1996, published 2002).

Experiments:
CD28-Ig = target: T1, CD28-Ig (Homo sapiens, UniProt P10747); test: Isothermal titration calorimetry, binding to CD28-Ig in solution
T1 construct: native leader and extracellular domain peptide of CD28 and CD80 were grafted onto a human IgG1 heavy chain Fc region; human IgG1 Fc (hinge/CH2/CH3); made in house; host or cells: CHO cells
Description: The solution binding properties of the hexameric and standard Ig fusion proteins of CD80 and CD86 were compared using isothermal titration calorimetry, essentially as described previously for other proteins [K. Johanson et. al., J. Biol. Chem, 270: 9459-9471 (1995), and references therein].
This lower affinity for CD28 than for CTLA4 is in agreement with other reports [P. S. Linsley et. al., Immunity 1: 793-801 (1994)].

[1] = target: T2, human CD28 on PCD28.1.s2.1 cells (Homo sapiens, UniProt P10747); test: Flow cytometry binding to cells expressing cell-surface CD28; format: cell-based; conditions: on ice
T2 construct: expressed in transfected cells; host or cells: PCD28.1.s2.1 (PE30.2 murine T-cell hybridoma transfected with pHbactCd28neo)
Method: Non-adherent CD28 expressing cells (PCD28.1.s2.1) were used for this assay format. PCD28.1.S2.1 cells were created by transfection of PE30.2 cells [D. Emilie et al., Eur. J. Immunol., 19:1619-1624 (1989)] with a vector for expression of human CD28 [D. Couez et al., Molecular Immunology, 31:47-57 (1994)]. All incubations were carried out on ice. Unlabelled CD80- and CD86-Igαtp or CD80 and CD86-Ig were incubated with the cells in binding buffer consisting of PBS w/o Ca+2/Mg+2, 0.2% bovine serum albumin and 0.1 % sodium azide. After washing twice in binding buffer, bound fusion proteins were detected with a 1:2000 dilution of a goat anti-human polyclonal antibody labeled with FITC (Flourescein isothiocyanate, Southern Biotech). Following two additional washes in binding buffer, the cells were resuspended in binding buffer and analyzed on a FACSort analyzer (Becton-Dickinson) using a 488 nm laser.

[2] = test system: murine T-cell hybridoma cell lines expressing human CD28 (PCD28.1.s2.1, DCL27CD28wt.s2); test: IL-2 production by CD28 T-cell hybridomas (CTLL-2 bioassay); format: cell-based
Description: The CD80- and CD86-Igαtp proteins were compared to the corresponding CD80 and CD86-Ig proteins to determine their ability to stimulate cells expressing human CD28 using two murine T-cell hybridoma cell lines expressing human CD28, PCD28.1.s2.1 and DCL27CD28wt.s2. The PCD28.1.s2.1 cell line was described in Example 1, part 3. The DCL27CD28wt.s2 cell line was created by transfection of the DC27 cell line [F. Pages et al., Nature, 369:327-329 (1994); F. Pages et al., J. Biol. Chem., 271(16):9403-9409 (1996)] with the same CD28 expression vector used for the PCD28.1.s2.1 cells [D. Couez et al., Molecular Immunology, 31:47-57 (1994)]. These cell lines were examined for their ability to produce IL-2 in response to activation with CD80- and CD86-Ig in comparison with the corresponding Igαtp fusion proteins. 96-well plates were coated with or without a CD3 antibody together with the CD80 and CD86 fusion proteins. This was accomplished by first incubating the plates with a previously determined suboptimal concentration of hamster […] CD3 antibody (MAb 145-2C11, Boerhinger-Mannheim Biochemicals) for two hours at room temperature (RT) or with just buffer alone, washing the plates with PBS, adding goat anti-human Ig heavy chain (GAH-IgHc, Sigma Chemical Co.) for an additional two hours at RT, washing again and coating with different concentrations of the CD80 or CD86 fusion protein for 16-18 hours at 4° C., washing again, and finally blocking for 30 min. with 0.2% BSA-PBS. […] T cells were incubated in the wells for 24 hours at 37° C., and supernatants were collected and evaluated for IL-2 levels in a standard CTLL-2 bioassay [S. M. Gillis et al., J. Immunol., 120:2027 (1978)]. […] OD570 readings were converted into ng/ml of IL-2 based on a standard curve generated by treating cells with known concentrations of IL-2.
(§1) IL-2 promoter activity and IL-2 levels were measured similarly to that described in parts A and B above, except that proliferation of the reader CTLL-2 cells was measured by ^3H-thymidine incorporation.

[3] = test system: PCD28.1.S2.1 cells (human CD28, lacZ fused to the IL-2 promoter); test: FDG assay for IL-2 promoter activity (lacZ reporter); format: cell-based, murine; conditions: added directly to PC28.1.s2.1 cells in solution (FIG. 20A)
Method: A second assay for agonist activity measured induction of IL-2 promoter activity, rather than production of IL-2 protein. The PCD28.1.S2.1 cells described above also contain lacZ fused to the IL-2 promoter. Thus, the PCD28.1.S2.1 cell line provides a convenient system for measuring IL-2 promoter activity upon CD28-mediated T cell simulation. T cells were activated as described above for the CTLL-2 assay, spun down, resuspended in 50 μl of media+50 μl of PBS, lysed with 10 μl of 20% Triton X-100, and supplemented with 25 μl of 10 mM FDG (Molecular Probes), a fluorogenic substrate for b-galactosidase. Hydrolysis of FDG first yields fluorescein monogalactoside (FMG) and then the highly fluorescent product fluorescein. Cell lysates were incubated with FDG for 60 min., and the levels of fluorescence were measured by Fluoroscan (MTX Lab Systems, Inc).
as §1

B1: CD86-Ig: binding protein/Fc construct for CD86 with human IgG1 Fc (protein)
chain: APLKIQAYFNETADLPCQFANSQNQSLSELVVFWQDQENLVLNEVYLGKEKFDSVHSKYMGRTSFDSDSWTLRLHNLQIKDKGLYQCIIHHKKPTGMIRIHQMNSELSVLANFSQPEIVPISNITENVYINLTCSSIHGYPEPKKMSVLLRTKNSTIEYDGIMQKSQDNVTELYDVSISLSVSFPDVTSNMTIFCILETDKTRLLSSPFSIELEDPQPPPDHEPKSADKTHTCPPCP
modifications: left off: a dimerising Fc or GST
interaction with CD28-Ig in solution by calorimetry (CD28-Ig): not detected
binding to CD28 positive cells [1]: no binding
IL-2 production ([2]; added directly to PC28.1.s2.1 cells in solution, CTLL-2 3H-thymidine incorporation (FIG. 20B)): no stimulation
IL-2 response ([2]; cross-linked with GAH antibody, no CD3 antibody): did not give a response
IL-2 production ([2]; soluble protein, absence of CD3 crosslinking): no activity
IL-2 promoter activity [3]: no stimulation
